# B1: PEP 3.09 (ssDNA)
# DNA: TTTTTAAGCCCACTGCACTGTGTACATCGAACTGCACCAACGTGGGCCCATG
# modifications: W indole, X amine, Y phenol modified dU [14X,19Y,23W,27X]
# B2: PEP 2.18 (ssDNA)
# DNA: TTTTTAACACGACGTTACTGTGGTCATCACAGGATGAGCCTGTCGTGCCATG
# modifications: W indole, X amine, Y phenol modified dU [15Y,16W,19Y,24W,27X,35Y,43X,46Y]
# B3: SNAP.03 (ssDNA)
# DNA: TTTTTAAGCCCACGGGTGTTCGACAGACACAGCAATACATCGTGGGCCCATG
# modifications: W indole, X amine, Y phenol modified dU [17,19,20,36,40]
# B4: SNAP.07 (ssDNA)
# DNA: TTTTTAACACGACCGGGCTGTGCACATCGAACACTGCGGTCGTCGTGCCATG
# modifications: W indole, X amine, Y phenol modified dU [19,27,35,40,43,46]
# B5: PEP 4.11 (ssDNA)
# DNA: TTTTTAAGCCCACCCGAGTTCGTCCAGCGAACCACGCGCGTGTCGTGCCATG
# modifications: W indole, X amine, Y phenol modified dU [19,20,23,43,46]
# B6: SNAP.05 (ssDNA)
# DNA: TTTTTAAGCCCACCCCGGTTCGCCAGACGAACCCCAACAGTGTGGGCCCATG
# modifications: W indole, X amine, Y phenol modified dU [19,20]
# B7: SNAP.04 (ssDNA)
# DNA: TTTTTAAGCCCACCCACCTGTGGACATCGAACCTCACTGCAGTGGGCCCATG
# modifications: W indole, X amine, Y phenol modified dU [19,27,34,38]
# B8: PEP 4.10 (ssDNA)
# DNA: TTTTTAAGCCCACAAGACTGTGCGTCGCACAGATTGGCATCGTCGTGCCATG
# modifications: W indole, X amine, Y phenol modified dU [19,25,34,35,40,43,46]
# B9: PEP 4.09 (ssDNA)
# DNA: TTTTTAACACGACATATGTTCGACGGACACAGTGTGTGGCGGTCGTGCCATG
# modifications: W indole, X amine, Y phenol modified dU [15,17,19,20,35,43,46]
# B10: SNAP.06 (ssDNA)
# DNA: TTTTTAAGCCCACTTCGCTGTGAGCAACGAACATCGAGCAGGTCGTGCCATG
# modifications: W indole, X amine, Y phenol modified dU [14,15,19,34,43,46]
# B11: SNAP.08 (ssDNA)
# DNA: TTTTTAACACGACTGAAGTTCGCCAGGCGAACATCGTGGTGGTCGTGCCATG
# modifications: W indole, X amine, Y phenol modified dU [14,19,20,34,40,43,46]
# B12: SNAP.02 (ssDNA)
# DNA: TTTTTAAGCCCACACTGCTGTGAAGGACACAGCCCGACATCGTCGTGCCATG
# modifications: W indole, X amine, Y phenol modified dU [16,19,40,43,46]
# Assays:
# [1] = target: T1, SNAP25 full length (FLAG and MYC tagged) (Homo sapiens, UniProt P60880 SEQ:12-217); assay: ELONA; full-length SNAP25; conditions: tags: FLAG and MYC
# T1 sequence (P60880 whole entry, the tested form may be a part): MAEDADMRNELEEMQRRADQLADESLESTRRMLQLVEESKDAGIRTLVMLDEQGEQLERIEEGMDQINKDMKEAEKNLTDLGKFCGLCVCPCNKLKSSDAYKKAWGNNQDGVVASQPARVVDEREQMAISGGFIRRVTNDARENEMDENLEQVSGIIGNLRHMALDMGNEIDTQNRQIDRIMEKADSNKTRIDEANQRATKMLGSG
# Excerpt: (§1) The data in Table 2 was collected by running direct ELISA assays on the 96 X-aptamers, elucidating their ability to bind SNAP25, SNAP25 fragments (PEP1, PEP2, PEP3, and PEP4), and a negative control. The X-aptamers were biotinylated and immobilized onto streptavidin-coated plates and were utilized as detection molecules. Higher numbers represent strong binding. The negative control peptide is a random peptide to measure the amount of binding that occurs to a random amino acid sequence.
# [2] = target: T2, SNAP25 Peptide 3 (PEP3; only a fragment of it is a SNAP25 subsequence) (Homo sapiens, UniProt P60880 SEQ:1-33); assay: ELONA
# T2 chain: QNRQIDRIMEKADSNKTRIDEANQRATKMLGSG
# Excerpt: as §1
# SNAP25 Peptide 2 (PEP2) = target: T3, SNAP25 Peptide 2 (PEP2) (Homo sapiens, UniProt P60880 SEQ:1-37); assay: ELONA
# T3 chain: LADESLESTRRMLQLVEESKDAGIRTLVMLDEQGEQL
# Excerpt: as §1
# [3] = target: T1, SNAP25 full length (FLAG and MYC tagged); assay: ELONA; conditions: tags: FLAG and MYC
# Excerpt: as §1
Binder,binding signal [1],binding signal [3],other results
B1,168 ELISA signal,–,binding signal [2]: 196 ELISA signal
B2,–,–,binding signal (SNAP25 Peptide 2 (PEP2)): 26 ELISA signal
B3,–,92 ELISA signal,–
B4,–,38 ELISA signal,–
B5,0 ELISA signal,–,–
B6,–,75 ELISA signal,–
B7,–,83 ELISA signal,–
B8,4 ELISA signal,–,–
B9,0 ELISA signal,–,–
B10,–,45 ELISA signal,–
B11,–,35 ELISA signal,–
B12,–,95 ELISA signal,–
